The target of assay [1] is GMA-2105 murine anti-staphylocoagulase monoclonal antibody.
In assay [2] the target is T1, Staphylocoagulase peptide SC(1-10), …, unconjugated (Staphylococcus aureus). The assay can be described thus: ELISA: purified GMA-2105 on unconjugated …, A490. On the technique in general: In an ELISA, binding on a coated surface is turned into a signal by an enzyme label.
The target in assay [3] is Staphylocoagulase peptide SC(1-10) conjugated to ovalbumin (Staphylococcus aureus). The assay can be described thus: ELISA: purified GMA-2105 on SC peptide-ovalbumin conjugate, A490.
For assay [4], the target named is T1, Staphylocoagulase peptide SC(1-10), …, …. The assay can be described thus: ELISA: GMA-2105 F(ab) on wells coated with …, A490.

B1: Staphylocoagulase peptide SC(1-10), …, unconjugated (peptide)
peptide: IVTKDYSKES
modifications: not checked
As for B1, the IC50 (read off the curve) in assay [1] was 2 nM.

B2: GMA-2105 murine anti-staphylocoagulase monoclonal antibody (antibody, V domains shown)
VH: EVKLEESGGGLVQPGGSMKLSCAASGFTFSDAWMDWVRQSPEKGLEWVAEIRTKANNHATYYAESVKGRFTISRDDSKSSVYLQMNSLRAEDTGIYYCTNVYYGNNDVKDYWGQGTSVTVSPAS
VL: DIVMTQSQKFMSTSVGDRVSVTCKASQNVDIYVAWYQQKPGQSPKALIYSASYRFSGVPDRFTGSGSGTDFTLSISNVQSEDLAEYFCQQYNNYPYTFGGGTKLEIKRADAAPTVSIFPPSSEGRI
On to B2, for which the results for the EC50 (read off the curve) in assay [2] and in assay [3] were 0.05 µg/mL and 0.03 µg/mL, respectively.

B3: GMA-2105 F(ab) fragment (Fab, V domains shown)
VH: EVKLEESGGGLVQPGGSMKLSCAASGFTFSDAWMDWVRQSPEKGLEWVAEIRTKANNHATYYAESVKGRFTISRDDSKSSVYLQMNSLRAEDTGIYYCTNVYYGNNDVKDYWGQGTSVTVSPAS
VL: DIVMTQSQKFMSTSVGDRVSVTCKASQNVDIYVAWYQQKPGQSPKALIYSASYRFSGVPDRFTGSGSGTDFTLSISNVQSEDLAEYFCQQYNNYPYTFGGGTKLEIKRADAAPTVSIFPPSSEGRI
B3 had an EC50 (read off the curve) in assay [4] of 0.1 µg/mL.

Broadly, the EC50 (read off the curve) is the concentration at which the effect is half-maximal. Higher therefore signals weaker potency.

The values are drawn from US20210079071A1.
